Where a chain is given by its changes, count along the chain named. Names and notes keep the numbering of the source.
T1: porcine heart citrate synthase (pig, UniProt P00889 28-464)
T1 construct: citrate synthase from porcine heart; Partly unfolded by incubation at 45 °C when it meets the chaperone; also called CS; source: bought: Sigma-Aldrich (porcine heart)
T1 sequence (looked up): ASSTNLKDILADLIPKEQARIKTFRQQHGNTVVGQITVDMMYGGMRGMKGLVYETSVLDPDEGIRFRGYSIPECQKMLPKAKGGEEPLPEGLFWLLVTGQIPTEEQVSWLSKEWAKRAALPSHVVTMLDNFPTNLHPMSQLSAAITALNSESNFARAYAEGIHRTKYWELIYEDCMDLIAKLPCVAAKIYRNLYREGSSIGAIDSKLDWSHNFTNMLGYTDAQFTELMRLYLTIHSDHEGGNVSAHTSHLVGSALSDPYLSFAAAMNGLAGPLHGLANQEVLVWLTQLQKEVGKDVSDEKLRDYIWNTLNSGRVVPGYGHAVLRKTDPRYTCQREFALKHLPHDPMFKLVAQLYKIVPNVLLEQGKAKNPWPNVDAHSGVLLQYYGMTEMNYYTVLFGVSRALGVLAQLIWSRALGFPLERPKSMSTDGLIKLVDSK

B1: recombinant human Bri2 BRICHOS domain, wild type (domain or fragment, UniProt Q9Y287 113-231, looked up)
chain: QTIEENIKIFEEEEVEFISVPVPEFADSDPANIVHDFNKKLTAYLDLNLDKCYVIPLNTSIVMPPRNLLELLINIKAGTYLPQSYLIHEHMVITDRIENIDHLGFFIYRLCHDKETYKL
notes: human Bri2, BRICHOS domain, residues 113 to 231; Also exists as monomers and dimers; the oligomer fraction was used with CS; also called wt Bri2 BRICHOS; rh Bri2 BRICHOS; source: recombinant, modified pET32 vector with His6-NT* tag; copies: about 18-30 (oligomers, estimated by SEC)
B2: rh Bri2 BRICHOS T206W (domain or fragment, human, UniProt Q9Y287 113-231, looked up)
chain: B1 chain with T94W
notes: also called T206W mutant; source: recombinant, modified pET32 vector with His6-NT* tag

Key:
[1] = target: the molecule itself; experiment: SEC; analytical SEC of isolated oligomers, Superdex 200 increase, 10 µmol/L protein in 20 mmol/L NaPi, 0.2 mmol/L EDTA, pH 8.0; number of subunits estimated from the peak maximum and its full width at half maximum
[2] = target: T1, porcine heart citrate synthase; experiment: SEC; 0.6 µmol/L CS incubated with 6 µmol/L rh Bri2 BRICHOS oligomers in 40 mmol/L HEPES/KOH pH 7.5 at 45 °C, then Superose 6 in 20 mmol/L NaPi pH 8.0, 0.2 mmol/L EDTA; fractions by SDS-PAGE (two bands) and native PAGE (one band); negative-stain EM of the complex; settings: both partners purified

Row | Binder | stoichiometry N [1] | binding result [2] | binding result [1]
1 | B1 | 18 to 30 subunits | binds | 
2 | B2 |  |  | binds

— publication PMC10167226, “Short hydrophobic loop motifs in BRICHOS domains determine chaperone activity against amorphous protein aggregation but not against amyloid formation” (Communications Biology, 2023)
